Measurements reported in patent publication US20070173444A1 (AFFYMAX, published 2007).
Bridge positions count the residues as written; N and C are the ends.

Tests used:
[1] = target: chimeric IL-5Ra/EGFR receptor (human, UniProt Q01344 21-342); assay: cell-based or functional assay
[2] = target: T1, IL-5RaECD (the extracellular domain (ECD) of the human IL-5 receptor a chain) (human, UniProt Q01344 21-342, extensively glycosylated); assay: competition with [125I] IL-5 for binding to IL-5Ra ECD
T1 construct: extracellular domain; also called IL-5RαECD; soluble IL-5Ra
T1 sequence (Q01344 21-342, looked up): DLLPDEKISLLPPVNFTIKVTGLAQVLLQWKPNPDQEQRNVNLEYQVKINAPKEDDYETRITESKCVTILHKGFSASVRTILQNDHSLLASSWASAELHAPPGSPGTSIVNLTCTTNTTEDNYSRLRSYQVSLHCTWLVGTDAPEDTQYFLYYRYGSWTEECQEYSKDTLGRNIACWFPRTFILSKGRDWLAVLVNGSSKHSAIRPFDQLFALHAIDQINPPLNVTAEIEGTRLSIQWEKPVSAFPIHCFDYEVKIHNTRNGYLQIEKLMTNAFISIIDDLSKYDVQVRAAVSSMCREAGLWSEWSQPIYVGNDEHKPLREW
Protocol: Binding affinities of synthetic peptides for IL-5Ra were measured in a competition binding assay using radio-iodinated IL-5. Immulon 4 (Dynatech) microtiter wells were coated with streptavidin (Sigma) by incubating 100 ul of a 50 ug/ml solution in PBS for 30 min. at 37. The wells were blocked with 200 ul of 1% BSA in PBS for 15 min. at 37, followed by 100 III of biotinylated monoclonal antibody, designated mAb 179, at 5 u. g/ml in PBS. Soluble IL-5Ra was then immobilized in the wells by incubating 100 µl of a solution of soluble receptor harvest diluted 1: 5000 in PBS/0.1% BSA for 1 hr. at 4. After washing away unbound receptor, 50 ul of various concentrations of test peptide diluted in PBS/0.1% BSA were added to the wells, followed by 50 µl of a fixed concentration of [₁₂₅I] IL-5 (Amersham). The binding reactions were incubated at 4 C for 2 hr, then washed with PBS to remove unbound [₁₂₅I] IL-5. Bound [₁₂₅I] IL-5 was determined by gamma counting.
Total binding was defined by the amount of [₁₂₅I] IL-5 bound in the absence of any competitor. Non-specific binding was defined by the amount of [₁₂₅I] IL-5 bound in the presence of 30 nM IL-5. Peptide binding data was analyzed to determine the peptide concentration required to reduce specific [₁₂₅I]

[3] = target: T2, native IL-5R a/β complex on TF-1 cells (human, UniProt Q01344 21-420; P32927 17-897); assay: cell-based or functional assay
T2 sequence (looked up) 1: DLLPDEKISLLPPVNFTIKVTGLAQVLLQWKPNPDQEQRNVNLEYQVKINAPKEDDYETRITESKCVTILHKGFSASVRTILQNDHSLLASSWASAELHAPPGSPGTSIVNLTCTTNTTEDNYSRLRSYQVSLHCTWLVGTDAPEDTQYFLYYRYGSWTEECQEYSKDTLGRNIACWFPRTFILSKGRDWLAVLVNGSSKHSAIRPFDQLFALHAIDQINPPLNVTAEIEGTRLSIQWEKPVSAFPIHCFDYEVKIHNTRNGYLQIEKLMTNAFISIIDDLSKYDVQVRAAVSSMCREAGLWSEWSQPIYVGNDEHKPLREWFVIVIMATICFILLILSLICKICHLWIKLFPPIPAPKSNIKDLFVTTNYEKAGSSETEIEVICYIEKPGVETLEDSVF
T2 sequence (looked up) 2: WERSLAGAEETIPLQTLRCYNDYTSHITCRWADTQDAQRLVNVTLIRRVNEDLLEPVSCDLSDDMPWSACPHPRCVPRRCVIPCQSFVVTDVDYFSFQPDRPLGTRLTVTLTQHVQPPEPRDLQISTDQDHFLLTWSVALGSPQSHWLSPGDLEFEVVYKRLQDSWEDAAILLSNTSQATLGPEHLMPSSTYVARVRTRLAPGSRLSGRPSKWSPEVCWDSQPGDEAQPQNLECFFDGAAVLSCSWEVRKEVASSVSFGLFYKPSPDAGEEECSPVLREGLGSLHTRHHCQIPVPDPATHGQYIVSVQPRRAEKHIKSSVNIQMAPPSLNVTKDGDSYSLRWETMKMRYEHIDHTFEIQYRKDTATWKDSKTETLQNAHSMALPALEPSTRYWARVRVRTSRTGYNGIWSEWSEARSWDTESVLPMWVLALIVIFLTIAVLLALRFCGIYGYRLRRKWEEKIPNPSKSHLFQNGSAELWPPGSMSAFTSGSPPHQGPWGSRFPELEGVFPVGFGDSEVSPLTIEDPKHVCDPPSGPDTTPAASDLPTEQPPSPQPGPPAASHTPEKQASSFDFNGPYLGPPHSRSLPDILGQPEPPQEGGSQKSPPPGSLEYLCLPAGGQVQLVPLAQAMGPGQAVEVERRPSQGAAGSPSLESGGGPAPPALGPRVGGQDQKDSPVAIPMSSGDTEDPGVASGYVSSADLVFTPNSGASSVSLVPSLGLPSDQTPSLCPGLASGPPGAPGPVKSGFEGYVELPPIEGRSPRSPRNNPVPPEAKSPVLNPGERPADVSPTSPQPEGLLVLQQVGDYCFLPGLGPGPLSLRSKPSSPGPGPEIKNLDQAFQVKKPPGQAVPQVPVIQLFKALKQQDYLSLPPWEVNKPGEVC

[4] = target: T2, native IL-5R a/β complex on TF-1 cells; assay: competition with [125I] IL-5 binding to TF-1 cells; AF 18748 as competitor
[5] = target: T1, IL-5RaECD (the extracellular domain …); assay: scintillation proximity competition assay, 20 pM [125I] IL-5, soluble IL-5Ra on beads; dimer of the printed monomer
Protocol: Binding affinities of synthetic peptides for IL-5Ra were measured in a scintillation proximity assay (SPA) using radio-iodinated IL-5. Streptavidin coated SPA beads (Amersham) were suspended in IL-5 binding buffer (phosphate buffered saline, 0.1% bovine serum albumin, 0.2% NaN3) at 2 mg beads/ml of buffer. Biotinylated mAb 179 was adsorbed onto the beads at a ratio of 2 ig Ab/mg beads by incubating the beads and antibody with agitation for at least 2 h. at 4. The beads were pelleted at 2500 rpm and resuspended at 2 mg/ml in binding buffer. Soluble IL-5Ra was then adsorbed onto the beads by diluting a solution of soluble receptor harvest 1:500 into the bead suspension and incubating with agitation for 2 hr at 4. The beads were again pelleted at 2500 rpm and resuspended at 2 mg/ml in binding buffer. Competition binding assays were carried out in 100p1 reactions in white polystyrene microtiter plates. These reactions contained 0.05 mg of receptor coated SPA beads, various concentrations of test peptide diluted in binding buffer, and 20 pM [₁₂₅I] IL-5 (Amersham). The plates were incubated at room temperature for 1 hour with agitation, then centrifuged for 5 min at 1500 rpm followed by scintillation counting on a Topcount instrument (Packard). Total binding was defined by the amount of [₁₂₅I] IL-5 bound in the absence of any competitor. Non-specific binding was defined by the amount of [₁₂₅I] IL-5 bound in the presence of 30 nM IL-5. Peptide binding data was analyzed to determine the peptide concentration required to reduce specific [₁₂₅I] IL-5 binding by 50% (IC₅₀). In each instance, the dimer has both intramolecular and intermolecular disulfide linkages as shown generically below: […]

[6] = target: T2, native IL-5R a/β complex on TF-1 cells; assay: cell-based or functional assay; remark: listed apart in the source

EC50 (read off the curve), luciferase reporter activity of IL-5Ra/EGFR Ba/F3 cells [1]: ~30 pM
IC50 [2]: 780 pM
inhibition of IL-5 induced human eosinophil adhesion to immobilized IgG, IC50 [3]: 348 pM
IC50 [4]: 400 pM
SPA pIC50 [5]: 9.1 negative log of the molar IC50
Microphysiometer pIC50 (block of TF-1 cell response to IL-5) [6]: 9.6 negative log of the molar IC50
B1: AF 18748 (a dimer of residues 32-50 of SEQ ID NO: 8) (peptide)
peptide: H-TGGGDGYVCVEWARCPTCK-OH
modifications: disulfide 15-18; also: homodimer via interchain disulfide Cys9-Cys9
notes: Synthetic dimer made with orthogonal protecting groups
